# Article PMC3569735
# Legend:
# [1] = molecular target: mAb CH59 (human); test: SPR
# [2] = molecular target: V1–V2 bnAb PG9 (human); test: SPR
substance,measurement,setting,value
AE.A244 gp120Δ11 (natural protein),Kd,[1],0.0022 µM
same,Kd,[2],0.0421 µM
